How the values were obtained:
[1] = target: cynomolgus monkey plasma kallikrein (pKal) (cynomolgus monkey); test: cell-based or functional assay
[2] = target: human plasma kallikrein (pKal) (human, UniProt P03952 20-638); test: cell-based or functional assay
Sequence of human plasma kallikrein (pKal) (P03952 20-638 limits assumed): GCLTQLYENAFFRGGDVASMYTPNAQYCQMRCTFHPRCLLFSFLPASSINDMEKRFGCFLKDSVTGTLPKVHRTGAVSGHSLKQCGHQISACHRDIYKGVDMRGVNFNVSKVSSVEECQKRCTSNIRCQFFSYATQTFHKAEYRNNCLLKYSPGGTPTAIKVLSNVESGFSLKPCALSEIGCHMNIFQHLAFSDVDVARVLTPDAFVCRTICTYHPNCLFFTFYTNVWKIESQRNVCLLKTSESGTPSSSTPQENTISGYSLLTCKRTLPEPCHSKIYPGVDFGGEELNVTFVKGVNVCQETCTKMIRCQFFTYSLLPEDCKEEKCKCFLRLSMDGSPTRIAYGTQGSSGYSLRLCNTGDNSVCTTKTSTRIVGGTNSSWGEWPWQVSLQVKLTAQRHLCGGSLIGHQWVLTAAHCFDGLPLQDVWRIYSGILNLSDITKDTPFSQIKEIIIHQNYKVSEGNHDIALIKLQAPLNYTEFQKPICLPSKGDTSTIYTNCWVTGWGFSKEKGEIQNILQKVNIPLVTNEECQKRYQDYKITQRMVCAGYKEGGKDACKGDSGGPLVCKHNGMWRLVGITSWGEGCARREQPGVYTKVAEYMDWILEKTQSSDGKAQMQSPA

Sequence of cynomolgus monkey plasma kallikrein (pKal) (cynomolgus monkey) (chain, as listed by the source): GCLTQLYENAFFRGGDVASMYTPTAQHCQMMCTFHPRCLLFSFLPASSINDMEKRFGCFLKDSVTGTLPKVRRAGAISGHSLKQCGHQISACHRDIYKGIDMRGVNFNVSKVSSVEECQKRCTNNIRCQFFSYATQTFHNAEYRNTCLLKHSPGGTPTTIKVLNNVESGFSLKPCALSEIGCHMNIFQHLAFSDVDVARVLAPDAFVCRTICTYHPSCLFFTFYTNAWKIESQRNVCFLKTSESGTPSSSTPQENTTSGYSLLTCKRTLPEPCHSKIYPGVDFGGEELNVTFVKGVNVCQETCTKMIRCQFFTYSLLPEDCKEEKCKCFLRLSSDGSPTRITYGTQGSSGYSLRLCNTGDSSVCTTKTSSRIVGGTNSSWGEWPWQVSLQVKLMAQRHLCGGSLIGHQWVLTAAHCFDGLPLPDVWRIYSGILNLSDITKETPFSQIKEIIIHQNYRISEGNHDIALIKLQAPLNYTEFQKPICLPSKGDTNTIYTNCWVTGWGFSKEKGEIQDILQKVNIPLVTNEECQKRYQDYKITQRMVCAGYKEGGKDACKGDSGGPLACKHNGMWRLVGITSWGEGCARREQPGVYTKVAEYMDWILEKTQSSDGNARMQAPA

percent inhibition of pKal activity (Pro-Phe-Arg-AMC substrate) after ex vivo FXIIa activation of plasma of a dosed monkey, drug level ~265 nM [1] [%] | % Reduction of one-chain HMWK (XIIa activated plasma, 9 nM DX2930; Protein Simple Western) [2] [%] | % Reduction of one-chain HMWK (XIIa activated plasma, 27 nM DX2930; Protein Simple Western) [2] [%] | % Reduction of one-chain HMWK (XIIa activated plasma, 80 nM DX2930; Protein Simple Western) [2] [%] | % Reduction of one-chain HMWK (XIIa activated plasma, 240 nM DX2930; Protein Simple Western) [2] [%] | % Reduction of one-chain HMWK (XIIa activated plasma, 480 nM DX2930; Protein Simple Western) [2] [%] | Area of the one-chain HMWK peak (XIIa activated plasma, 9 nM DX2930; Protein Simple Western) [2] | Area of the one-chain HMWK peak (XIIa activated plasma, 27 nM DX2930; Protein Simple Western) [2] | Area of the one-chain HMWK peak (XIIa activated plasma, 80 nM DX2930; Protein Simple Western) [2] | Area of the one-chain HMWK peak (XIIa activated plasma, 240 nM DX2930; Protein Simple Western) [2] | Area of the one-chain HMWK peak (XIIa activated plasma, 480 nM DX2930; Protein Simple Western) [2] | maximal inhibition of pKal activity (PFR-AMC substrate), plasma of dose group 3 (1.0 mg/kg DX-2930) [2] [%] | maximal inhibition of pKal activity (PFR-AMC substrate), plasma of dose group 4 (3.0 mg/kg DX-2930) [2] [%] | IC50 (read off the curve) [2] [nM] | Binder
80 | 92.1 | 90.4 | 79 | 63.9 | 54.9 | 842 | 1030 | 2230 | 3840 | 4800 | 19 | 36 | – | DX-2930 (antibody, INN chains, looked up, V domains shown) VH: EVQLLESGGGLVQPGGSLRLSCAASGFTFSHYIMMWVRQAPGKGLEWVSGIYSSGGITVYADSVKGRFTISRDNSKNTLYLQMNSLRAEDTAVYYCAYRRIGVPRRDEFDIWGQGTMVTVSS VL: DIQMTQSPSTLSASVGDRVTITCRASQSISSWLAWYQQKPGKAPKLLIYKASTLESGVPSRFSGSGSGTEFTLTISSLQPDDFATYYCQQYNTYWTFGQGTKVEIK
– | – | – | – | – | – | – | – | – | – | – | – | – | ~400 | alpha 2 macroglobulin (α2M) (other, UniProt P01023 24-1474, looked up) SVSGKPQYMVLVPSLLHTETTEKGCVLLSYLNETVTVSASLESVRGNRSLFTDLEAENDVLHCVAFAVPKSSSNEEVMFLTVQVKGPTQEFKKRTTVMVKNEDSLVFVQTDKSIYKPGQTVKFRVVSMDENFHPLNELIPLVYIQDPKGNRIAQWQSFQLEGGLKQFSFPLSSEPFQGSYKVVVQKKSGGRTEHPFTVEEFVLPKFEVQVTVPKIITILEEEMNVSVCGLYTYGKPVPGHVTVSICRKYSDASDCHGEDSQAFCEKFSGQLNSHGCFYQQVKTKVFQLKRKEYEMKLHTEAQIQEEGTVVELTGRQSSEITRTITKLSFVKVDSHFRQGIPFFGQVRLVDGKGVPIPNKVIFIRGNEANYYSNATTDEHGLVQFSINTTNVMGTSLTVRVNYKDRSPCYGYQWVSEEHEEAHHTAYLVFSPSKSFVHLEPMSHELPCGHTQTVQAHYILNGGTLLGLKKLSFYYLIMAKGGIVRTGTHGLLVKQEDMKGHFSISIPVKSDIAPVARLLIYAVLPTGDVIGDSAKYDVENCLANKVDLSFSPSQSLPASHAHLRVTAAPQSVCALRAVDQSVLLMKPDAELSASSVYNLLPEKDLTGFPGPLNDQDNEDCINRHNVYINGITYTPVSSTNEKDMYSFLEDMGLKAFTNSKIRKPKMCPQLQQYEMHGPEGLRVGFYESDVMGRGHARLVHVEEPHTETVRKYFPETWIWDLVVVNSAGVAEVGVTVPDTITEWKAGAFCLSEDAGLGISSTASLRAFQPFFVELTMPYSVIRGEAFTLKATVLNYLPKCIRVSVQLEASPAFLAVPVEKEQAPHCICANGRQTVSWAVTPKSLGNVNFTVSAEALESQELCGTEVPSVPEHGRKDTVIKPLLVEPEGLEKETTFNSLLCPSGGEVSEELSLKLPPNVVEESARASVSVLGDILGSAMQNTQNLLQMPYGCGEQNMVLFAPNIYVLDYLNETQQLTPEIKSKAIGYLNTGYQRQLNYKHYDGSYSTFGERYGRNQGNTWLTAFVLKTFAQARAYIFIDEAHITQALIWLSQRQKDNGCFRSSGSLLNNAIKGGVEDEVTLSAYITIALLEIPLTVTHPVVRNALFCLESAWKTAQEGDHGSHVYTKALLAYAFALAGNQDKRKEVLKSLNEEAVKKDNSVHWERPQKPKAPVGHFYEPQAPSAEVEMTSYVLLAYLTAQPAPTSEDLTSATNIVKWITKQQNAQGGFSSTQDTVVALHALSKYGAATFTRTGKAAQVTIQSSGTFSSKFQVDNNNRLLLQQVSLPELPGEYSMKVTGEGCVYLQTSLKYNILPEKEEFPFALGVQTLPQTCDEPKAHTSFQISLSVSYTGSRSASNMAIVDVKMVSGFIPLKPTVKMLERSNHVSRTEVSSNHVLIYLDKVSNQTLSLFFTVLQDVPVRDLKPAIVKVYDYYETDEFAIAEYNAPCSKDLGNA
